Source: patent publication US20190201494A1, “COMPOSITIONS AND METHODS FOR TREATING NICOTINE WITHDRAWAL” (STC UNM, priority 2016, published 2019)
“Also recorded” adds a separate entry of the source.

Test system: overnight abstinent smokers
Experiment: Blood measurements: insulin, glucose, C-peptide, non-esterified fatty acids (Example 1)
Type: in vivo, human
Experimental: Blood measurements: Blood samples were analyzed for measurements of insulin, glucose, C-peptide, and non-esterified fatty acids.
Serum insulin was analyzed on the Immulite 1000 immunoassay system (Siemens Healthcare GmbH, Erlangen, Germany). This is a solid-phase, enzyme-labeled chemiluminescent immunometric assay. The solid phase (bead) was coated with monoclonal murine anti-insulin antibody. The liquid phase consisted of alkaline phosphatase (bovine calf intestine) conjugated to polyclonal sheep anti-insulin antibody and alkaline phosphatase (bovine calf intestine) conjugated to monoclonal murine anti-insulin antibody. The patient sample and the reagent were incubated together with the coated bead for 60 minutes. During this time, insulin in the sample forms the antibody sandwich complex with the monoclonal murine anti-insulin antibody on the bead, enzyme conjugated polyclonal sheep anti-insulin antibody, and enzyme conjugated monoclonal murine anti-insulin antibody in the reagent. Unbound patient sample and enzyme conjugate were then removed by centrifugal washes. Finally, chemiluminescent substrate was added to the test unit containing the bead and the signal is generated in proportion to the bound enzyme.
Serum glucose was performed on the ACE ALERA system (Alfa Wassermann Diagnostic Technologies, S.p.A., Bologna, Italy). An increase in absorbance of NADH is directly proportional to glucose concentration, and was measured bichromatically at 340 nm/378 nm.
Serum C-peptide was performed on the Immulite 1000 immunoassay system (Siemens Healthcare GmbH, Erlangen, Germany). This is a solid-phase, two-site chemiluminescent immunometric assay. The solid phase (bead) is coated with monoclonal murine anti-C-peptide antibody. The liquid phase consists of alkaline phosphatase (bovine calf intestine) conjugated to monoclonal murine anti-C-peptide antibody in buffer. The patient sample and the reagent were incubated together with the coated bead for 30 minutes. During this time, C-peptide in the sample forms the antibody sandwich complex with monoclonal murine anti-C-peptide antibody in the reagent. Unbound patient sample and enzyme conjugate were then removed by centrifugal washes. Finally, chemiluminescent substrate was added to the Test Unit containing the bead and the signal is generated in proportion to the bound enzyme.
Blood samples were collected at 12:20, 13:00, 13:40, and 14:10 and analyzed for non-esterified fatty acids using an AU 480 chemistry analyzer (Beckman Coulter, Inc., Brea, Calif.) using a NEFA-HR(2) kit (Wako Chemicals USA, Inc., Cape Charles, Va.).
Random coefficient models were constructed for analyzing subjective (i.e., craving and mood), blood (insulin, glucose, C-peptide and nonesterified fatty acids) and cardiovascular (blood pressure) measures. For every model, an evaluation of non-linear term was performed, and, if significance was detected, that polynomial term for time was included in the model. Treatment, time and treatment by time interaction were included as fixed effects. Time nested within subjects was included as a random effect. If an interaction was detected, post hoc comparisons were performed comparing treatment groups at each time point. Cortisol was log-transformed for the purpose of normalizing distribution. The summary measure for cortisol analysis was peak change from baseline. […] Significance values are reported as detected; no adjustments were made for multiple comparisons.

intranasal insulin: bulk human Regular insulin (U100 Novolin R, Novo Nordisk US), 100 IU/ml, six nasal sprays delivering 60 IU
Glucose, effect of treatment (60 IU intranasal vs placebo): did not differ; also recorded: subjects remained well within euglycemic range; also recorded: minor decline in plasma glucose concentrations
Serum (circulating) insulin levels, effect of treatment (60 IU intranasal vs placebo): did not differ; also recorded: no detection of treatment effects; also recorded: no significant changes in circulating insulin
Serum insulin, treatment×time interaction, b (SE(b)=0.01, z=−0.37, p=0.71, non-significant): −0.005
Glucose, treatment×time interaction, b (SE(b)=0.02, z=2.60, p≤0.01): 0.05
Glucose, treatment, b (SE(b)=2.55, z=−1.06, p=0.28): −2.72
